The record followed here is US20210277150A1.

The target of assay [1] is FcgammaRIIB (CD32b) (human) (UniProt P31994). Nature of the assay: SPR equilibrium fit; reference WT IgG1.
Assay [2] addresses FcgammaRIIIA (CD16a), F allotype (human) (UniProt P08637). Nature of the assay: SPR equilibrium fit; reference WT IgG1.

Sequence of FcgammaRIIIA (CD16a), F allotype (human) (P08637 17-208 limits assumed): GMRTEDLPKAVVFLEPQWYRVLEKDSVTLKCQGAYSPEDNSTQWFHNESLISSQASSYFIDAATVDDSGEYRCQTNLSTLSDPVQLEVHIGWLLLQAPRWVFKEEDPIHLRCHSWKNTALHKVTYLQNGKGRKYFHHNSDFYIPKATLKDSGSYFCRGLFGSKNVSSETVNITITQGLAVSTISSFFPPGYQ
Sequence of FcgammaRIIB (CD32b) (human) (P31994 43-217 limits assumed): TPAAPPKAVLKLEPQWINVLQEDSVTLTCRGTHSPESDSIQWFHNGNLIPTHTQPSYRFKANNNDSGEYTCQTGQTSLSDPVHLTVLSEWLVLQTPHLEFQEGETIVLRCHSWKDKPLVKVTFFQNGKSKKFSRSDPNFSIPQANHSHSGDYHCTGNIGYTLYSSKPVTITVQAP

Take “Control 2 (T366S_L368A_Y407V/T366W) (antibody)”: the Ratio WT/Variant of kD in assay [1] came to 1.13; in assay [2], 1.1.

Consider “Control 1 (K409D_K392D/D399K_D356K) (antibody)”, for which the Ratio WT/Variant of kD in assay [1] was determined as 1.68; in assay [2], 1.28.
